The target in one series is T1, MBP-Mzfp1 full-length (Drosophila melanogaster, UniProt Q1LZ24 1-586).
T1 sequence: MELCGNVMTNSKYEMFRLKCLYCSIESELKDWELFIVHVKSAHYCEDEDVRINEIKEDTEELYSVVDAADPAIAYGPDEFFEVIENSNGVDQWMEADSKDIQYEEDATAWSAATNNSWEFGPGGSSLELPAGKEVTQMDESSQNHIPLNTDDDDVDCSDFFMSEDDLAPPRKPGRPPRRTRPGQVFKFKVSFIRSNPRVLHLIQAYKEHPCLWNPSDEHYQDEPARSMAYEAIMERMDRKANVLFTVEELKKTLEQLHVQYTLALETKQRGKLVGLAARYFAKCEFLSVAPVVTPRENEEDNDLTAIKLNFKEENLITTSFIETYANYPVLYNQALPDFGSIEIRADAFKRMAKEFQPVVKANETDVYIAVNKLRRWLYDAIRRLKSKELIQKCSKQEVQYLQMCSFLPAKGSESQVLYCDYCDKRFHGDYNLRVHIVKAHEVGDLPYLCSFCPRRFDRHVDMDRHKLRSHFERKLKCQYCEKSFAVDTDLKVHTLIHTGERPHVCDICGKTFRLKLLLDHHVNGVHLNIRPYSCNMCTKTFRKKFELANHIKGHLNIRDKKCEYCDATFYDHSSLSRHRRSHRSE
Nature of the series: EMSA; 0.1 mM ZnSO4, 5 mM MgCl2, poly(dI-dC); PBS pH 8.0, 5 mM MgCl2, 0.1 mM ZnSO4, 1 mM DTT, 0.1% NP-40, 10% glycerol, poly(dI-dC), room temperature, 30 min; 5% native PAGE in 0.5x TBE. As to conditions: protein: recombinant; tags: N-terminal MBP; label: Cy5; blunt.

The target in the next series is T2, MBP-Mzfp1 MADF1-MADF2 (Drosophila melanogaster, UniProt Q1LZ24 100-434).
T2 sequence: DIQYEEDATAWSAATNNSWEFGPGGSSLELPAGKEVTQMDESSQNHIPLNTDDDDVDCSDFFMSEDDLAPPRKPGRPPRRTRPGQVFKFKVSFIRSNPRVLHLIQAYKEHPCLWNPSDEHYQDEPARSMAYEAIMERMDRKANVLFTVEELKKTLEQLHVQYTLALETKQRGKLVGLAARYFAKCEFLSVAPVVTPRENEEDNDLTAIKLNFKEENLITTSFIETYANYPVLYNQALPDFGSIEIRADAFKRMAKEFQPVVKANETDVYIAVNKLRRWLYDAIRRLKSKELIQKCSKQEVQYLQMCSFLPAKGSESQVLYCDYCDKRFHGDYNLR
Nature of the series: EMSA; no specific binding; 0.1 mM ZnSO4, poly(dI-dC); PBS pH 8.0, 5 mM MgCl2, 0.1 mM ZnSO4, 1 mM DTT, 0.1% NP-40, 10% glycerol, poly(dI-dC), room temperature, 30 min; 5% native PAGE in 0.5x TBE. The following applies: protein: recombinant; tags: MBP; label: Cy5; blunt.

B1: Mzfp1x4 (dsDNA)
DNA 1: GAATTCTAAGCTCTTTGTCGATATCTTGACACACCTATATGATTACTAAGCTCTTTGTCGATATCTTGACACACCTATATGAATTCTAAGCTCTTTGTCGATATCTTGACACACCTATATGATTACTAAGCTCTTTGTCGATATCTTGACACACCTATATGAATTCCTGCAG
DNA 2: CTGCAGGAATTCATATAGGTGTGTCAAGATATCGACAAAGAGCTTAGTAATCATATAGGTGTGTCAAGATATCGACAAAGAGCTTAGAATTCATATAGGTGTGTCAAGATATCGACAAAGAGCTTAGTAATCATATAGGTGTGTCAAGATATCGACAAAGAGCTTAGAATTC
In the case of B1, the binding result with MBP-Mzfp1 full-length is given as “binds”; with MBP-Mzfp1 MADF1-MADF2, “no binding”.

Values taken from paper PMC11229372, “New Drosophila promoter-associated architectural protein Mzfp1 interacts with CP190 and is required for housekeeping gene expression and insulator activity”.
